# Measured values as given in patent US20070218463A1 (CANAG DIAGNOSTICS, published 2007).
# Target: T1, Cathepsin L (Calbiochem) (UniProt P07711 114-333, limits assumed)
# T1 construct: Bought enzyme
# Experiment: complex binding, 2 ug SCCA protein mixed with cathepsin, 37 C 30 min, SDS-PAGE
# Description: Complex binding of SCCA to substrates was performed by mixing 2 μg of SCCA-protein with 0.5 μg of Cathepsin G (Biodesign Int.) or 0.5 μg of […] Cathepsin L (Calbiochem) in 1×PBS buffer in a total volume of 4.5 μl. Samples were incubated at 37° C. for 30 minutes. To each sample, 0.5 μl of 10× Complex-buffer (20% SDS, 140 mM Mercaptoethanol, bromophenolblue) was added. Samples were incubated for 3 minutes at 95° C. and analyzed on a 12.5% SDS-PAGE-gel. The SCCA1/A2 fusion protein forms a complex with Cathepsin G but not with Cathepsin L showing that the fusion protein is functional and has the substrate specificity of SCCA2 (FIG. 8).
# T1 sequence (P07711 114-333 limits assumed): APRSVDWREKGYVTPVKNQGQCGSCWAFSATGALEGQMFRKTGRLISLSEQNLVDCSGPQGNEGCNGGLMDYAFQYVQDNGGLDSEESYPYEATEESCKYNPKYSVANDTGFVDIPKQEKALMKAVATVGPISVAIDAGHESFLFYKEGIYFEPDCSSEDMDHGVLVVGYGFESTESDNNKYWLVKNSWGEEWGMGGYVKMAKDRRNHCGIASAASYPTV
binder,measurement,value
"SCCA1/SCCA2 fusion protein (other, Recombinant serpin fusion (exons 2-7 of SCCA1 fused to exon 8 of SCCA2); also called SCCA1/A2; SCCA1/A2 fusion protein) MNSLSEANTKFMFDLFQQFRKSKENNIFYSPISITSALGMVLLGAKDNTAQQIKKVLHFDQVTENTTGKAATYHVDRSGNVHHQFQKLLTEFNKSTDAYELKIANKLFGEKTYLFLQEYLDAIKKFYQTSVESVDFANAPEESRKKINSWVESQTNEKIKNLIPEGNIGSNTTLVLVNAIYFKGQWEKKFNKEDTKEEKFWPNKNTYKSIQMMRQYTSFHFASLEDVQAKVLEIPYKGKDLSMIVLLPNEIDGLQKLEEKLTAEKLMEWTSLQNMRETCVDLHLPRFKMEESYDLKDTLRTMGMVNIFNGDADLSGMTWSHGLSVSKVLHKAFVEVTEEGVEAAAATAVVVVELSSPSTNEEFCCNHPFLFFIRQNKTNSILFYGRFSSP",binding result,no binding
